4 molecules from PMC4877046, “TrmBL2 from Pyrococcus furiosus Interacts Both with Double-Stranded and Single-Stranded DNA” (PLoS ONE, 2016) can be followed below.

For data set [1], the target named is T1, TrmBL2 (Pyrococcus furiosus, UniProt Q8U3H1 1-264).
T1 sequence: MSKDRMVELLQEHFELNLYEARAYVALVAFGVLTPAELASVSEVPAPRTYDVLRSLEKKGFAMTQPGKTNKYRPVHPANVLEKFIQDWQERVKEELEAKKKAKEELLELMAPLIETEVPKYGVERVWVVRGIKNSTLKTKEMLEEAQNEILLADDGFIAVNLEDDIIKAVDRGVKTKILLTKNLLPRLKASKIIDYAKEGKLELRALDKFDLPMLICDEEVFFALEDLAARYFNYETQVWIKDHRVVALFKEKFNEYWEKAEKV
Briefly: magnetic tweezers (persistence length). As to conditions: half-coverage, Hill coefficient 3.0 +/- 0.33; EMSA: PBS, 10 nM DNA, 1 h, room temperature, 8% PAGE in PBS; magnetic tweezers: PBS pH 7.4, 5 mM NaN3, room temperature. In general terms: In EMSA bound probe runs differently from free probe, usually more slowly.

Data set [2] concerns the target T1, TrmBL2. Kind of data set: EMSA; apparent Kd, Hill fit, Hill coefficient 2.9 +/- 0.4; Fig 6 legend gives 2.0 uM; EMSA: PBS, 10 nM DNA, 1 h, room temperature, 8% PAGE in PBS; magnetic tweezers: PBS pH 7.4, 5 mM NaN3, room temperature. Conditions: protein: recombinant; chain copies: 2; label: 5'-Cy5.
In data set [3] the target is T1, TrmBL2. Kind of data set: EMSA; apparent Kd, Hill fit, Hill coefficient 4.4 +/- 0.6; Fig 6 legend gives 1.0 uM; EMSA: PBS, 10 nM DNA, 1 h, room temperature, 8% PAGE in PBS; magnetic tweezers: PBS pH 7.4, 5 mM NaN3, room temperature. Conditions: protein: recombinant; chain copies: 2; label: 5'-Cy5 on S1; blunt.
Data set [4] deals with the molecule itself. Kind of data set: SEC; gel filtration on a 60 ml Superdex 200 column, 40 mM HEPES pH 7.5, 150 mM NaCl; last step of the purification. On the technique in general: SEC sorts molecules by how far they enter the pores of the column.

In turn, dsDNA tether for magnetic tweezers registered a K half in data set [1] of 300 nM.

B1: 60mer ssDNA (ssDNA)
DNA: GATATAATATACCTATATCAATGGCCTCCCACGCATAAGCGCAGATACGTTCTGAGGGAA
Take B1: in data set [2], the Kd was 2100 ± 100 nM.

B2: 60mer dsDNA (dsDNA)
DNA 1: GATATAATATACCTATATCAATGGCCTCCCACGCATAAGCGCAGATACGTTCTGAGGGAA
DNA 2: TTCCCTCAGAACGTATCTGCGCTTATGCGTGGGAGGCCATTGATATAGGTATATTATATC
Consider B2, for which, in data set [3], the Kd came out at 1070 ± 30 nM.

B3: TrmBL2 from Pyrococcus furiosus (natural protein, UniProt Q8U3H1 1-264, looked up)
chain: MSKDRMVELLQEHFELNLYEARAYVALVAFGVLTPAELASVSEVPAPRTYDVLRSLEKKGFAMTQPGKTNKYRPVHPANVLEKFIQDWQERVKEELEAKKKAKEELLELMAPLIETEVPKYGVERVWVVRGIKNSTLKTKEMLEEAQNEILLADDGFIAVNLEDDIIKAVDRGVKTKILLTKNLLPRLKASKIIDYAKEGKLELRALDKFDLPMLICDEEVFFALEDLAARYFNYETQVWIKDHRVVALFKEKFNEYWEKAEKV
notes: TrmBL2 (30.6 kDa) from Pyrococcus furiosus; This E. coli material is dimeric by gel filtration; also called archaeal "TrmB-like" protein TrmBL2; source: E.coli BL21 (DE3), purified (heating to 80°C, Q-Sepharose, Superdex 200)
Broadly, the stoichiometry N is a count of units in the complex or per binding partner. For B3, the “stoichiometry N” value in data set [4] was determined as 2.
